# Read-outs that look alike come from different tables or passages of the source.
# T1: MERS-CoV (NCoV/Novel coronavirus) Spike Protein (ECD, aa 1-1297, His Tag) (Sino 40069-[change]) (MERS-CoV, UniProt K9N5Q8 18-1297)
# T1 sequence: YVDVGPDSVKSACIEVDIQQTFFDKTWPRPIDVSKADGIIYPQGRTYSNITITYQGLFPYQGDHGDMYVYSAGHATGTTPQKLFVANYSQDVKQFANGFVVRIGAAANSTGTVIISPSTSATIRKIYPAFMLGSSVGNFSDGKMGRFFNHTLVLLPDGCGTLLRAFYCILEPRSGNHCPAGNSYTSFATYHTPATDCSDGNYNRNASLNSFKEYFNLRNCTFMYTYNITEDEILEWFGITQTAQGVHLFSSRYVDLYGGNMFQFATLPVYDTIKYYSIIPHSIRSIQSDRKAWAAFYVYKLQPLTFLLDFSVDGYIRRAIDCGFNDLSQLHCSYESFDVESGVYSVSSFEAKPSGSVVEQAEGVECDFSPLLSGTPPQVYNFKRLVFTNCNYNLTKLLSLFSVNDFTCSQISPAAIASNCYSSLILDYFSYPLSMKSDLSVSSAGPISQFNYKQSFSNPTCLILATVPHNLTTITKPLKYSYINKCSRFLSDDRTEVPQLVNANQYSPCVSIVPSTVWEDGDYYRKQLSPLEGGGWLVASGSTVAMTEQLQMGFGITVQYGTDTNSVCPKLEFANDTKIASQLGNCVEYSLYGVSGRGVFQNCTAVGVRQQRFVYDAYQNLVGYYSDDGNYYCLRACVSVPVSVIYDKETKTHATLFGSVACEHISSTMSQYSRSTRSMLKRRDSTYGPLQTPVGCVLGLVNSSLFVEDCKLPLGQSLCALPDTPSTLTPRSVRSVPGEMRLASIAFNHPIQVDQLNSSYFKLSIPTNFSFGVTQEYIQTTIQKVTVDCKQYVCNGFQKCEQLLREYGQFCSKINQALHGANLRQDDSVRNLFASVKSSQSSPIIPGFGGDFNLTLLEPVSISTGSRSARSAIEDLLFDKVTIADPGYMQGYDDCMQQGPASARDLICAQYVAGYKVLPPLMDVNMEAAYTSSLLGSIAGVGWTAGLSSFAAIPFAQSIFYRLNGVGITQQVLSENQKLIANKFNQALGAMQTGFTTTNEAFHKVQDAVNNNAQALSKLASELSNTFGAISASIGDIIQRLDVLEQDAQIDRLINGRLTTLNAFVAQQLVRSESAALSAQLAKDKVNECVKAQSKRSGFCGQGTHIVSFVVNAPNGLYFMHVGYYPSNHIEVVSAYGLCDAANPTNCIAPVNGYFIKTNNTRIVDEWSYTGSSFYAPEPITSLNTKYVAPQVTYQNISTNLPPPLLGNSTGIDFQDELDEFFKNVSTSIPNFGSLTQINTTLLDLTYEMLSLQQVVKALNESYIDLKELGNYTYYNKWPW
# T2: MERS-CoV (NCoV/Novel coronavirus) Spike Protein S2 (aa 726-1296, His Tag) (Sino 40070-[change]) (MERS-CoV, UniProt K9N5Q8 726-1296)
# T2 sequence: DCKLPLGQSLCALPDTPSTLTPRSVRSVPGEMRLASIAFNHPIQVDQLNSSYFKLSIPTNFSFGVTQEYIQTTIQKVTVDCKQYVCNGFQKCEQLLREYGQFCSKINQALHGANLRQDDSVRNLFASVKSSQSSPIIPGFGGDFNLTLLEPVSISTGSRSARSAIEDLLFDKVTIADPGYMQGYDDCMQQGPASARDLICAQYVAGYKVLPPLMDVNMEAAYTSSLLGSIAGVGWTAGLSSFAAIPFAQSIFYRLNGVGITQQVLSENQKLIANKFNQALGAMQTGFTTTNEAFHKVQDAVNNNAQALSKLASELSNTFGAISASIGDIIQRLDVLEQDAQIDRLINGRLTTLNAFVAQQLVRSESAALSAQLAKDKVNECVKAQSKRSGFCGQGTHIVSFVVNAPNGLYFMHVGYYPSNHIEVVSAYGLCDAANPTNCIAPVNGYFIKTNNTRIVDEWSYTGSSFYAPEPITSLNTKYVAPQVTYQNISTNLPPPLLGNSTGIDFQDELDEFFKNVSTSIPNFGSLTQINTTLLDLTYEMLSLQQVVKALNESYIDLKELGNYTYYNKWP
# T3: MERS-CoV (NCoV/Novel coronavirus) Spike Protein fragment (RBD, aa 367-606, His Tag) (Sino 40071-V08B1) (MERS-CoV, UniProt K9N5Q8 367-606)
# T3 sequence: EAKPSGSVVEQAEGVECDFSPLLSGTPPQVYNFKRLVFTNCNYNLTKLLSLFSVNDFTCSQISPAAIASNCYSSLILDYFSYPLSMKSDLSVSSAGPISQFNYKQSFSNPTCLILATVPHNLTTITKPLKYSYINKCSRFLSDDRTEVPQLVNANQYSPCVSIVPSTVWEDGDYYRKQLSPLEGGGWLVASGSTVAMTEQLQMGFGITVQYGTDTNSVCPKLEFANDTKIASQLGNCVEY
# B1: mAb10955 (antibody, V domains shown)
# VH: EVQLVESGGGLVQPGGSLRVSCAASGFTVSRNYMSWVRQAPGKGLEWVSVIYSGGSTFYADSVKGRFTISRDNSKNTLYLQMNSLRAEDTAIYYCARYIPRFDPWGQGTLVTVSS
# VL: DIQMTQSPSSLSASVGDRVTITCQASQDISNYLNWFQQKPGRAPKLLIYDASNLETGVPSRFSGSGSGTDFTFTISSLQPEDIATYYCQQYDNLPITFGQGTRLEIKR
# B2: mAb11008 (antibody, V domains shown)
# VH: EVQLVESGGGLVQPGGSLRLSCAASGFTVSSNYMTWVRQAPGKGLEWVSVIYSGGSTFYADSVKGRFTISRHNSENTLYLQMNSLRAEDTAVYYCARDLAAAGTDYWGQGALVTVSS
# VL: DIQLTQSPSFLSASVGDRVTITCWASQGISSYLAWYQQKPGKAPKLLIYAASTLQSGVPSRFSGSGSGTEFTLTISSLQPDDFATYYCQHLNSYLYTFGQGTKLEIK
# B3: mAb11002 (antibody, V domains shown)
# VH: EVQLVESGGGLVQPGGSLRLSCAASGFTVSSNYMSWVRQAPGKGLEWVSVIYSGGSTFYADSVKGRFTISRHNSKNTLYLQMNSLRAEDTAVYYCAREGYGMDVWGQGTTVTVSS
# VL: not shown
# B4: mAb10971 (antibody, V domains shown)
# VH: EVQLVESGGGLIQPGGSLRLSCAASGVTVSSNYMSWVRQAPGKGLEWVSVIYSGGSTFYSDSVKGRFSISRDNSKNTLYLQMNSLRAEDTAVYYCARDLYYYGMDVWGQGTTVTVSS
# VL: DIQLTQSPSFLSASVGDRVTITCRASQGISTYLAWYQQKPGKAPKLLIYAASTLQSGVPSRFSGSGSGTEFTLTISSLQPEDFATYYCQQLDSYPGLTFGGGTKVEIKR
# B5: mAb11000 (antibody, V domains shown)
# VH: EVQLVESGGGLVQPGGSLRLSCAASGFTVSSNYMNWVRQAPGKGLEWVSVIYSGGSTFYADSVRGRFTISRHNSKNTLYLQMNSLRAEDTAVYYCARDGSAYGMDVWGQGTTVTVSS
# VL: not shown
# B6: mAb11010 (antibody, V domains shown)
# VH: QVQLVESGGGVVQPGRSLRLSCAASGFTFSSYGMHWVRQAPGKGLEWVAVISYDGSYKYYADSVKGRFTISRDNSKNTLYLQMNSLRAEDTAVYYCAIDGGTVTTIFDYWGQGTLVTVSS
# VL: not shown
# B7: mAb10998 (antibody, V domains shown)
# VH: EVQLVESGGGLVHPGGSLRLSCAASGLTVSSNYMSWVRQAPGKGLEWVSVIYSGGSTYYADSVKGRFTISRHNSKNTLFLQMNSLRAEDTAVYYCARDRPITGTTLDVWGQGTTVTVSS
# VL: DIQMTQSPSSLFASVGDRVTITCRASQSISSYLNWYQQKPGKAPKLLIYAASSLQSGVPSRFSGSGSGTDFTLTISSLQPEDFAFYYCQQTYSTPPITFGQGTRLEIK
# B8: mAb11004 (antibody, V domains shown)
# VH: QVQLVESGGGVVQPGRSLRLSCVASGFTFSIYGMDWVRQAPGKGLEWVAVISYDGSNKYYADSVKGRFTISRDNSKNTLYLQMNSLRPEDTAVYYCAKDREAAADAFDIWGQGTMVTVSS
# VL: DIQMTQSPSSVSASVGDRVTITCRASQGISSWLAWYQQKPGKAPKLLIYAASSLHSGVPSRFSGSGSGTDFTLTISSLQPEDFATYYCQQANSFRLTFGGGTKVEIK
# How the values were obtained:
# Test in all cases: Luminex bead binding, supernatant
# [1] = molecular target: T4, Human SARS Coronavirus Spike S1 Subunit Protein (His Tag) (Sino 40150-V08B1) (Human SARS Coronavirus, UniProt P59594 14-667)
# [2] = molecular target: T1, MERS-CoV (NCoV/Novel coronavirus) Spike …
# [3] = molecular target: T2, MERS-CoV (NCoV/Novel coronavirus) Spike …
# [4] = molecular target: T3, MERS-CoV (NCoV/Novel coronavirus) Spike …
# [5] = molecular target: T4, Human SARS Coronavirus Spike S1 Subunit …; remark: listed apart in the source
# [6] = molecular target: T1, MERS-CoV (NCoV/Novel coronavirus) Spike …; remark: listed apart in the source
# [7] = molecular target: T2, MERS-CoV (NCoV/Novel coronavirus) Spike …; remark: listed apart in the source
# [8] = molecular target: T3, MERS-CoV (NCoV/Novel coronavirus) Spike …; remark: listed apart in the source
# [9] = molecular target: SARS-CoV-2 Spike Protein (RBD)(R319-F541).mFc (mAb10621-L1) (SARS-CoV-2)
# [10] = molecular target: SARS-CoV-2 Spike Protein (RBD)(R319-F541).hFc (mAb10622-L1) (SARS-CoV-2)
# [11] = molecular target: Bt-SARS-CoV-2 Spike Protein (RBD)(R319-F541).mFc (mAb10621-L2) (SARS-CoV-2)
Binder,Binding signal (MFI) [1] [MFI],Binding signal (MFI) [2] [MFI],Binding signal (MFI) [3] [MFI],Binding signal (MFI) [4] [MFI],Binding signal (MFI) [5] [MFI],Binding signal (MFI) [6] [MFI],Binding signal (MFI) [7] [MFI],Binding signal (MFI) [8] [MFI],Binding signal (MFI) [9] [MFI],Binding signal (MFI) [10] [MFI],Binding signal (MFI) [11] [MFI]
B1,14,15,18,20,,,,,,,
B2,,,,,31,18,16,20,4260,2570,3050
B3,,,,,31,,,,9530,9380,2200
B4,20,15,13,20,,,,,,,
B5,,,,,,,,27,,,
B6,,,,,7420,,,,14400,8880,9350
B7,,,,,16,,,,2230,1740,2230
B8,,,,,33,15,20,26,4580,4880,4300

# Source: patent US20240043504A1 (published 2024)
